Patent US20150210998A1

Columns and labels:
[1] = biological target: His6-E6AP ligase (full-length, baculovirus-expressed) (human) (UniProt Q05086); assay: concentration dependence of inhibition of E6AP-catalyzed polyubiquitin chain formation
[2] = biological target: His6-E6AP ligase (full-length, baculovirus-expressed) (human) (UniProt Q05086); assay: non-competitive inhibition with respect to [UbcH7]o of His6-E6AP chain formation
[3] = biological target: GST-E6AP ligase (wild-type, bacterially expressed fusion protein) (human) (UniProt Q05086); assay: inhibition of GST-E6AP-catalyzed 125I-polyubiquitin chain formation, nonlinear hyperbolic regression
[4] = biological target: GST-E6AP ligase (wild-type, bacterially expressed fusion protein) (human) (UniProt Q05086); assay: calculated from the Ki of inhibition of chain formation
GST-E6APR626A (human) = GST-E6APR626A (human) (UniProt Q05086); assay: cell-based or functional assay
[5] = biological target: His6-E6AP ligase (full-length, baculovirus-expressed) (human) (UniProt Q05086); assay: cell-based or functional assay
GST-E6APY533A (human) = GST-E6APY533A (human) (UniProt Q05086); assay: cell-based or functional assay
[6] = biological target: His6-E6AP ligase (full-length, baculovirus-expressed) (human) (UniProt Q05086); assay: activation kinetics of His6-E6AP-catalyzed 125I-polyubiquitin chain formation (non-essential activator, double reciprocal plot)
[7] = biological target: GST-E6AP ligase (wild-type, bacterially expressed fusion protein) (human) (UniProt Q05086); assay: inhibition of GST-E6AP-catalyzed 125I-polyubiquitin chain formation
[8] = biological target: His6-E6AP ligase (full-length, baculovirus-expressed) (human) (UniProt Q05086); assay: non-competitive inhibition with respect to [UbcH7]o of E6AP chain formation

Sequence of GST-E6APY533A (human) (Q05086 other isoform, or with tags, fused parts or gaps): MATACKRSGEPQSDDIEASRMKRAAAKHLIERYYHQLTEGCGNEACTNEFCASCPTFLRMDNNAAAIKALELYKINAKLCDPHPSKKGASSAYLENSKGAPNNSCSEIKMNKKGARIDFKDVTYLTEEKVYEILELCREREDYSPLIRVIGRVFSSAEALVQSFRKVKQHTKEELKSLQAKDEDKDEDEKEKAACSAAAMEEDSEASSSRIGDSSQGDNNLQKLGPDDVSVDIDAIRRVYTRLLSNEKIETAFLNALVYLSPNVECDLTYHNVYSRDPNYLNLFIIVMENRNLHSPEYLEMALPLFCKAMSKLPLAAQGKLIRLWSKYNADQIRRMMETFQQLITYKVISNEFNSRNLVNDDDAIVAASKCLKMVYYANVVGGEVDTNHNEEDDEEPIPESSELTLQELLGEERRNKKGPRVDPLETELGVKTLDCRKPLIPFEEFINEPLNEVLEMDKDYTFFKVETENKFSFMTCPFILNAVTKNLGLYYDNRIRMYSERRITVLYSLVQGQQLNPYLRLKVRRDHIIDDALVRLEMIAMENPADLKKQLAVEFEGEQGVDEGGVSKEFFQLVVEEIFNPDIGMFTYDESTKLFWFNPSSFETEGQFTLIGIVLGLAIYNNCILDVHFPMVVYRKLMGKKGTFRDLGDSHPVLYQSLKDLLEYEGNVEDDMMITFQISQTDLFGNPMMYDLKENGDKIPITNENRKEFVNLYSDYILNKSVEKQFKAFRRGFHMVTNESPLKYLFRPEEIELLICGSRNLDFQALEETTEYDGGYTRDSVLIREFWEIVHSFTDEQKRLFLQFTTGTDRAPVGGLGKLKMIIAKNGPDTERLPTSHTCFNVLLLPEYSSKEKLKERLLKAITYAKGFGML
Sequence of E6AP-HectC820A (thrombin-processed) (Q05086 473-875 C843A limits assumed): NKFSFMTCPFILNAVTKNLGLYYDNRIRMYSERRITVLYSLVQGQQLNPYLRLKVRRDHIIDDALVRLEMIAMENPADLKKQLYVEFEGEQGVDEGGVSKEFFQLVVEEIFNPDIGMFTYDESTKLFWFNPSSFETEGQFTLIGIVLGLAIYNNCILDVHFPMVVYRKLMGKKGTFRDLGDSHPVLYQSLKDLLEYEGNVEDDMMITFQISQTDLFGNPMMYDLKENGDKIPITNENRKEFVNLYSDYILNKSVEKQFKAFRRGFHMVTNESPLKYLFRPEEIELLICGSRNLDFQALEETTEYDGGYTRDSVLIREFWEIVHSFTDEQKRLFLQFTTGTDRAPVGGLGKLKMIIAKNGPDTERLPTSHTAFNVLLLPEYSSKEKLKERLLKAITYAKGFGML
Sequence of GST-E6AP-HectC820A (Q05086 473-875 C843A): as the sequence (Q05086 473-875 C843A limits assumed) above
Sequence of GST-E6APR626A (human) (Q05086 other isoform, or with tags, fused parts or gaps): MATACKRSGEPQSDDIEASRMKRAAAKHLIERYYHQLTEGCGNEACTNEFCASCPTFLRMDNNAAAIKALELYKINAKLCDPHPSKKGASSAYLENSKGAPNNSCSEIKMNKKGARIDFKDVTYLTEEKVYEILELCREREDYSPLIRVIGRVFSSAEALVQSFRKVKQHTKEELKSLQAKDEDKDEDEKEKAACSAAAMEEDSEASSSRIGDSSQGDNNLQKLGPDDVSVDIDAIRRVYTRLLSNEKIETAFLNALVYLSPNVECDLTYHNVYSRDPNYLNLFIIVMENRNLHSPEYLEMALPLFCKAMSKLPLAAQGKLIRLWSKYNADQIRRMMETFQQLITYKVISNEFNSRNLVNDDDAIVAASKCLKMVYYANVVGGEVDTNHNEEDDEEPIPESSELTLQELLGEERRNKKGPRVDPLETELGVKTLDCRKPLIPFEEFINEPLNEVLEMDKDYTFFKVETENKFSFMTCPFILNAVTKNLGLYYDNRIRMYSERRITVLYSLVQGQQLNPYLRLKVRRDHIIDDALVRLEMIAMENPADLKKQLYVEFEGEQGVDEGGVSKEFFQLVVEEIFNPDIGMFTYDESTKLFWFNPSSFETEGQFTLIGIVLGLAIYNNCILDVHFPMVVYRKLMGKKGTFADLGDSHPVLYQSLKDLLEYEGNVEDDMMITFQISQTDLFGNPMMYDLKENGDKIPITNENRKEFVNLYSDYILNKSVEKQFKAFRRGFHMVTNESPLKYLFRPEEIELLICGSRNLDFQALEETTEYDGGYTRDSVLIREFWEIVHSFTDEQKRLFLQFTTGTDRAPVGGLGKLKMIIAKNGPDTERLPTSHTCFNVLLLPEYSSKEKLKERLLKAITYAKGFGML

**Q.** “E6(HPV16)Δ91 N-terminal domain (from UniProt P03126 1-91)” was tested. Which Ki [1] did it give?
**A.** 4 µM

**Q.** And the Ki [2]?
**A.** 6 µM

**Q.** What does the source list for “E6APΔ495 (thrombin-processed) (from UniProt Q05086 1-495)”?
**A.** Ki [3]: 19 µM; ΔGbinding [4]: -6.4 kcal/mol

**Q.** “HPV16 E6 protein (recombinant, full-length) (from UniProt P03126 1-158)” was tested. Which increase in rate of 125I-polyubiquitin chain formation with 20 nM E6 (GST-E6APR626A (human)) did it give?
**A.** 13 fold

**Q.** And the stimulation in E6AP ligase activity at saturating E6 protein [5]?
**A.** 14 fold

**Q.** What about the increase in rate of 125I-polyubiquitin chain formation with 20 nM E6 (GST-E6APY533A (human)) of the same substance?
**A.** 8 fold

**Q.** What about the Kd [6] of the same substance?
**A.** 0.0015 µM

**Q.** For “GST-E6AP-HectC820A (from UniProt Q05086 450-852)”, which Ki [7] is on record?
**A.** 31 µM

**Q.** “E6AP-HectC820A (thrombin-processed) (from UniProt Q05086 450-852)” was tested. Which Ki [7] did it give?
**A.** 27 µM

**Q.** “E6(HPV16)Ct C-terminal domain (from UniProt P03126 89-158)” was tested. Which Ki [8] did it give?
**A.** 4 µM

**Q.** How did the Ki [3] turn out when “GST-E6APΔ495 (from UniProt Q05086 1-495)” was run?
**A.** 12 µM

**Q.** What about the ΔGbinding [4] of the same substance?
**A.** -6.7 kcal/mol
